According to patent publication US20140186897A1, “TRANSFORMANT OF YEAST OF GENUS SCHIZOSACCHAROMYCES, METHOD FOR PRODUCING SAME, METHOD FOR PRODUCING ß-GLUCOSIDASE, AND CELLULOSE DEGRADATION METHOD” (ASAHI GLASS COMPANY, LIMITED, priority 2011, published 2014):
Changes are numbered by the printed parent chain. Names may count otherwise.

B1: I260F: modified-type P3AaBGL1 with I260F only (mutation 1) (protein)
chain: MKITAVIALLFSLAAASPIPVADPGVVSVSLKKRADELAFSPPFYPSPWANGQGEWAEAYQRAVAIVSQMTLDEKVNLTTGTGWELEKCVGQTGGVPRLNIGGMCLQDSPLGIRDSDYNSAFPAGVNVAATWDKNLAYLRGQAMGQEFSDKGIDVQLGPAAGPLGRSPDGGRNWEGFSPDPALTGVLFAETIKGIQDAGVVATAKHYILNEQEHFRQVAEAAGYGFNISDTISSNVDDKTIHEMYLWPFADAVRAGVGAFMCSYNQINNSYGCQNSYTLNKLLKAELGFQGFVMSDWGAHHSGVGSALAGLDMSMPGDITFDSATSFWGTNLTIAVLNGTVPQWRVDDMAVRIMAAYYKVGRDRLYQPPNFSSWTRDEYGFKYFYPQEGPYEKVNHFVNVQRNHSEVIRKLGADSTVLLKNNNALPLTGKERKVAILGEDAGSNSYGANGCSDRGCDNGTLAMAWGSGTAEFPYLVTPEQAIQAEVLKHKGSVYAITDNWALSQVETLAKQASVSLVFVNSDAGEGYISVDGNEGDRNNLTLWKNGDNLIKAAANNCNNTIVVIHSVGPVLVDEWYDHPNVTAILWAGLPGQESGNSLADVLYGRVNPGAKSPFTWGKTREAYGDYLVRELNNGNGAPQDDFSEGVFIDYRGFDKRNETPIYEFGHGLSYTTFNYSGLHIQVLNASSNAQVATETGAAPTFGQVGNASDYVYPEGLTRISKFIYPWLNSTDLKASSGDPYYGVDTAEHVPEGATDGSPQPVLPAGGGSGGNPRLYDELIRVSVTVKNTGRVAGDAVPQLYVSLGGPNEPKVVLRKFDRLTLKPSEETVWTTTLTRRDLSNWDVAAQDWVITSYPKKVHVGSSSRQLPLHAALPKVQ
B2: Q156L: modified-type P3AaBGL1 with Q156L only (protein)
chain: B1 chain with Q156L, F260I
B3: N458S: modified-type P3AaBGL1 with N458S only (mutation 3) (protein)
chain: B1 chain with F260I, N458S
B4: R629L: modified-type P3AaBGL1 with R629L only (mutation 6) (protein)
chain: B1 chain with F260I, R629L

What was measured:
[1] = glucose inhibition measurement (residual glucosidase activity in the presence of glucose); type: biochemical; details: for Residual glucosidase activity, Glc 0 mM / Residual glucosidase activity, Glc 1 mM / Residual glucosidase activity, Glc 5 mM / Residual glucosidase activity, Glc 10 mM / Residual glucosidase activity, Glc 20 mM / Residual glucosidase activity, Glc 50 mM / Residual glucosidase activity, Glc 100 mM / Residual glucosidase activity, Glc 200 mM: Example 9; for Residual glucosidase activity, Glc 0 mM: glucose 0 mM (reference set to 100); for Residual glucosidase activity, Glc 1 mM: glucose 1 mM; for Residual glucosidase activity, Glc 5 mM: glucose 5 mM; for Residual glucosidase activity, Glc 10 mM: glucose 10 mM; for Residual glucosidase activity, Glc 20 mM: glucose 20 mM; for Residual glucosidase activity, Glc 50 mM: glucose 50 mM; for Residual glucosidase activity, Glc 100 mM: glucose 100 mM; for Residual glucosidase activity, Glc 200 mM: glucose 200 mM; for resistance to glucose inhibition (in words): compared with P3AaBGL1 / β-glucosidase without the mutation
Procedure: To 10 μl of 20 mM pNPG, 10 μl of 1M sodium acetate buffer solution (pH 5.0) and from 4 to 10 μl of 1M glucose (final concentration of from 20 to 50 mM) were added, followed by addition of water up to the total volume of 150 μl. Thereafter, 50 μl of the diluted enzyme sample was introduced for reacting them at 37° C. for 10 minutes. As a control, a glucose-free reaction mixture was used, and then the reaction was carried out at 37° C. for 10 minutes, in the same manner. 100 μl of each reaction mixture was mixed with 100 μl of 2% sodium carbonate solution to terminate reaction, and then the amount of liberated p-nitrophenol was colorimetrically measured at a wavelength of 450 nm.
The ratio (%) of the colorimetric value of each reaction mixture to the colorimetric value of the control sample (glucose-free sample) was defined as the residual activity after glucose inhibition.
(§1) By using the above-obtained culture supernatant of the P3AaBGL1 mutant strain, a diluted enzyme sample was prepared, and then the enzymatic activity of the sample was measured in accordance with the above-described activity measurement method. Further, the glucose inhibition at a final glucose concentration of from 0.1 to 200 mM and the thermostability at a warming temperature of from 50 to 75° C. were measured for evaluation.
(§2) 11F10 strain, 22A12 strain, 28C02 strain, 29F09 strain and mutBGL1 strain selected from the mutant strains, and ASP3326 strain as the original strain were cultivated in a Sakaguchi flask containing 100 ml of YPD medium at 30° C. for two days. To each of the culture supernatants obtained by cultivating them, […] was added until 80% saturation was reached, thereby to carry out ammonium sulfate precipitation at 4° C. for 2 hours. Thereafter, centrifugation was carried out to collect pellets, and the pellets were dissolved in 10 ml of 10 mM citrate phosphate buffer solution (pH 7.0). Then, desalting and concentration were carried out by using an ultrafiltration membrane having MWCO of 100,000, thereby to recover 1 ml of a crude liquid. Thus recovered crude liquid was purified by using Hitrap QXL column to collect a fraction of a peak of pNPG activity, thereby to obtain a purified sample. Elution was carried out by using a 10 mM citrate phosphate buffer solution (pH 7.0) and a NaCl concentration gradient (0 to 1M).
(§3) In the same manner as in Example 1, the residual glucosidase activities after glucose inhibition at a glucose concentration of from 0.1 to 200 mM were measured. Further, the residual glucosidase activities after heat treatment at a temperature of from 50 to 75° C. for 10 minutes were measured.

[2] = thermostability measurement (residual glucosidase activity after heat treatment); type: physicochemical; details: for Residual glucosidase activity, Temp 50° C. / Residual glucosidase activity, Temp 55° C. / Residual glucosidase activity, Temp 60° C. / Residual glucosidase activity, Temp 65° C. / Residual glucosidase activity, Temp 70° C. / Residual glucosidase activity, Temp 73° C. / Residual glucosidase activity, Temp 75° C. / Residual glucosidase activity, Untreated: Example 9; for Residual glucosidase activity, Temp 50° C.: 10 minutes at 50° C.; for Residual glucosidase activity, Temp 55° C.: 10 minutes at 55° C.; for Residual glucosidase activity, Temp 60° C.: 10 minutes at 60° C.; for Residual glucosidase activity, Temp 65° C.: 10 minutes at 65° C.; for Residual glucosidase activity, Temp 70° C.: 10 minutes at 70° C.; for Residual glucosidase activity, Temp 73° C.: 10 minutes at 73° C.; for Residual glucosidase activity, Temp 75° C.: 10 minutes at 75° C.; for Residual glucosidase activity, Untreated: no heat treatment (reference set to 100); for thermostability (in words): compared with P3AaBGL1 / β-glucosidase without the mutation
Procedure: To 10 μl of 20 mM pNPG, 10 μl of 1M sodium acetate buffer solution (pH 5.0) and 130 μl of water were added, and then 50 μl of a diluted enzyme sample preliminarily heat-treated at […] for 10 minutes was introduced for reacting them at 37° C. for 10 minutes. As a control, a diluted enzyme sample which was not subjected to the heat treatment was used, and then the reaction was carried out at 37° C. for 10 minutes, in the same manner. 100 μl of each reaction mixture was mixed with 100 μl of 2% sodium carbonate solution to terminate reaction, and then the amount of liberated p-nitrophenol was colorimetrically measured at a wavelength of 450 nm.
The ratio (%) of the colorimetric value of each reaction mixture to the colorimetric value of the control sample (untreated sample) was defined as the residual activity after heat treatment.
as §1, §2, §3

[3] = glucosidase activity measurement of culture supernatant (pNPG); type: biochemical
Procedure: A mutant strain which formed a large colony was selected from P3AaBGL1 mutant strain library. Then, thus selected strain and P3ASP3326 strain as the original strain were cultivated in 150 μl/well (96-well plate) of YES medium at 30° C. for two days. 50 μl of each culture supernatant was diluted by 150 μl of 50 mM acetate buffer (pH 5.0) to prepare a diluted enzyme sample. Then, the enzymatic activity of the sample was measured in accordance with the following method.
To 10 μl of 20 mM p-nitrophenyl-β-D-glucoside (hereinafter abbreviated as pNPG), 10 μl of 1M sodium acetate buffer solution (pH 5.0) and 130 μl of water were added, and then 50 μl of the diluted enzyme sample was introduced for reacting them at 37° C. for 10 minutes. 100 μl of the reaction mixture was mixed with 100 μl of 2% sodium carbonate solution to terminate reaction, and then the amount of free p-nitrophenol was colorimetrically measured at a wavelength of 450 nm.
The amount of enzyme that produces 1 μmol of p-nitrophenol per minute was defined as 1 U.
The P3AaBGL1 mutant strain obtained as above was cultivated in YES medium at 30° C. for one day. 100 μl of the culture broth was inoculated on 5 ml of YPD medium (1% of yeast extract, 2% of peptone, and 2% of glucose), followed by cultivation at 30° C. for two days. Thereafter, the culture broth was centrifuged to obtain a culture supernatant.
as §1

[4] = culture supernatant, relative to 0 mM glucose, Tables 7-10

resistance to glucose inhibition (in words) [1]	Activity ([3]; Example 9, Table 11)	Molecule	Residual glucosidase activity, Glc 0 mM [1]	Residual glucosidase activity, Glc 1 mM [1]	Residual glucosidase activity, Glc 5 mM [1]	Residual glucosidase activity, Glc 10 mM [1]	Residual glucosidase activity, Glc 20 mM [1]	Residual glucosidase activity, Glc 50 mM [1]	Residual glucosidase activity, Glc 100 mM [1]	Residual glucosidase activity, Glc 200 mM [1]	Residual glucosidase activity, Temp 50° C. [2]	Residual glucosidase activity, Temp 55° C. [2]	Residual glucosidase activity, Temp 60° C. [2]	Residual glucosidase activity, Temp 65° C. [2]	Residual glucosidase activity, Temp 70° C. [2]	Residual glucosidase activity, Temp 73° C. [2]	Residual glucosidase activity, Temp 75° C. [2]	Residual glucosidase activity, Untreated [2]	thermostability (in words) [2]	also measured
–	–	6H05	–	–	–	–	–	–	–	–	–	–	–	–	–	–	–	–	–	Residual activity, Glc 20 mM [1, 4]: 41%; Residual activity, Glc 50 mM [1, 4]: 23%; Residual activity, Temp 65° C. ([2]; culture supernatant warmed 10 minutes at 65° C., relative to no heat treatment, Tables 7-10): 73%; Residual activity, Temp 67° C. ([2]; culture supernatant warmed 10 minutes at 67° C., relative to no heat treatment, Tables 7-10): 59%; Activity ([3]; pNPG, pH 5.0, 37° C., 10 minutes, Tables 7-10): 525 mU/ml
increase	457 mU/ml	B1	100%	95.9%	73.6%	55.6%	39.0%	20.2%	11.4%	6.3%	97.0%	91.2%	87.7%	65.2%	22.6%	1.8%	1.8%	100%	increase	–
decrease	507 mU/ml	B2	100%	92.8%	64.9%	46.8%	31.5%	15.5%	8.8%	5.4%	93.9%	89.7%	83.9%	46.0%	6.3%	0.9%	1.4%	100%	decrease	–
without decreasing	586 mU/ml	B3	100%	92.7%	68.1%	52.1%	35.9%	17.7%	10.4%	6.0%	98.6%	95.7%	91.6%	64.2%	19.4%	0.8%	1.6%	100%	can be improved	–
without decreasing	526 mU/ml	B4	100%	91.5%	67.4%	53.9%	37.6%	19.6%	11.1%	6.9%	98.7%	93.7%	90.7%	71.8%	26.5%	3.5%	1.5%	100%	can be improved	–
